According to article PMC6171917 (PLoS ONE, 2018):
Values belong to the binder of their own block, whether it stands above or below them.

Legend:
desmin, full-length = target: T1, desmin, full-length (UniProt P17661 1-470); assay: co-sedimentation; FluoBACE on in vitro assembled IFs (25 μg/mL constant); serial dilutions of HEK 293T soluble extract with EGFP-DSP C-terminus (active ≤ 30 nM); 15 min at 4°C (K5/K14 IFs) or 22°C (desmin IFs); 20,000 × g 30 min; fluorescence in supernatant; one site specific binding with Hill slope; apparent Kd; conditions: one partner purified
T1 construct: desmin; The desmin fragments are said to be human; also called desmin IFs; source: E. coli, purified following a published protocol [37]; also whole E. coli extract; assembled in vitro into IFs for sedimentation assays

[1] = target: T2, K5/K14 (mixture or heterodimer of full-length cytokeratins 5 and 14) (UniProt P13647 1-590; P02533 1-472); assay: as above; conditions: one partner purified
T2 construct: cytokeratin 5 (K5), plasmid pET23-K5; cytokeratin 14 (K14), plasmid pET23-K14; Same two recombinant proteins used spotted in 8 M urea (dot blot) and as in vitro assembled filaments (sedimentation assays); also called K5/K14 IFs; K5/K14 filaments; source: mixed for spotting, or heterodimer isolated by anion exchange and assembled into IFs
T2 sequence (looked up) 1: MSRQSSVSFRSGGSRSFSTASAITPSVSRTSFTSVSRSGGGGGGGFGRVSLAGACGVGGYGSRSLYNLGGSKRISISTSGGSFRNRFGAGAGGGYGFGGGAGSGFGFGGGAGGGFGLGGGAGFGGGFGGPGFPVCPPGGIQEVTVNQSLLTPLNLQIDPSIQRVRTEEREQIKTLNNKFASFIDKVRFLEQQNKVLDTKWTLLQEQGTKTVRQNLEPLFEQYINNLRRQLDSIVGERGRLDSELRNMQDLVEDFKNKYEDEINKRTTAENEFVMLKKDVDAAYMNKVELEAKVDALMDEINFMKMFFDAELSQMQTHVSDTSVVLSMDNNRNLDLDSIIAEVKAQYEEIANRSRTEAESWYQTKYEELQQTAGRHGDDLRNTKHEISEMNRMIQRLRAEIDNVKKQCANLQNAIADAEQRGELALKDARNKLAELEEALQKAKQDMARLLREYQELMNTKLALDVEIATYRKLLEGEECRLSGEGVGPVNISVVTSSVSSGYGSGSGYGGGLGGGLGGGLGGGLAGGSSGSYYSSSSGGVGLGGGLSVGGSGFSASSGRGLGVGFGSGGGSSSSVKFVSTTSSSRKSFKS
T2 sequence (looked up) 2: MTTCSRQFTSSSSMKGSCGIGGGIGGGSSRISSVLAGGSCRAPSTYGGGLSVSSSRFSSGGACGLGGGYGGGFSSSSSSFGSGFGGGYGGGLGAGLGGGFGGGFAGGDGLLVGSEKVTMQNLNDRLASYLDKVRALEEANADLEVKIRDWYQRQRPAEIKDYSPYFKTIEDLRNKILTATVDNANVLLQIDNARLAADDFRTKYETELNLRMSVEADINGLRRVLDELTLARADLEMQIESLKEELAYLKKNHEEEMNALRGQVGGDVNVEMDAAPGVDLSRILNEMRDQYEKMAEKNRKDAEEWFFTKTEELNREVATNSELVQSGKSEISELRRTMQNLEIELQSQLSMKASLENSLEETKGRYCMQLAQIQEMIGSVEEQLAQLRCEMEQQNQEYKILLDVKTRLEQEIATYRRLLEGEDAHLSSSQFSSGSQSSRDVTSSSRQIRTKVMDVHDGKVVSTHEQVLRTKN

[2] = target: T3, K5 (cytokeratin 5), purified (UniProt P13647 1-590); assay: co-sedimentation; K5 and K14 mixed 1.1:1, heterodimer isolated on anion exchanger in 8 M urea, dialyzed against 0.7 mM sodium phosphate pH 7.5, assembly with 20 mM KCl at 37°C 30 min; 20,000 × g 4°C 30 min, pellet and supernatant by SDS-PAGE; conditions: both partners purified
T3 construct: cytokeratin 5 (K5), plasmid pET23-K5; source: E. coli Rosetta pLysS, inclusion bodies, purified (cation exchange, Superdex 200 in 6 M urea)
T3 sequence (looked up): T2 sequence (looked up) 1

T1 sequence (P17661 whole entry, the tested form may be a part): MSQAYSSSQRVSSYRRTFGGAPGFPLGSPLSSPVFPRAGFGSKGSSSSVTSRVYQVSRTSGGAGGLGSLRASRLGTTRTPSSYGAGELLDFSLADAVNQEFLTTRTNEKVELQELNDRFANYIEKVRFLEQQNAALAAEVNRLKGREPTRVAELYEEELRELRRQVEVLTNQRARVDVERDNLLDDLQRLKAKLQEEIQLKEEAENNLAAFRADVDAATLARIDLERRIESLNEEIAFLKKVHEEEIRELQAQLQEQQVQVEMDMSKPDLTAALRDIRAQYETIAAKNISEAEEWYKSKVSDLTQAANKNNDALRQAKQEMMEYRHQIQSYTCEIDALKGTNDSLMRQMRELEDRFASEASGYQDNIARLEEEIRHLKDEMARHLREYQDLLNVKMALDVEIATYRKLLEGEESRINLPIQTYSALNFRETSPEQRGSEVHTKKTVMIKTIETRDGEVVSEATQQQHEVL

Kd (desmin, full-length): 18 nM | Kd [1]: 10 nM
B1: EGFP-DSP C-terminus (C-terminus of desmoplakin tagged at the N-terminus with EGFP) (domain or fragment, UniProt P15924-1 2194-2871, looked up)
chain: PHTGLLLLSVQKRSMSFQGIRQPVTVTELVDSGILRPSTVNELESGQISYDEVGERIKDFLQGSSCIAGIYNETTKQKLGIYEAMKIGLVRPGTALELLEAQAATGFIVDPVSNLRLPVEEAYKRGLVGIEFKEKLLSAERAVTGYNDPETGNIISLFQAMNKELIEKGHGIRLLEAQIATGGIIDPKESHRLPVDIAYKRGYFNEELSEILSDPSDDTKGFFDPNTEENLTYLQLKERCIKDEETGLCLLPLKEKKKQVQTSQKNTLRKRRVVIVDPETNKEMSVQEAYKKGLIDYETFKELCEQECEWEEITITGSDGSTRVVLVDRKTGSQYDIQDAIDKGLVDRKFFDQYRSGSLSLTQFADMISLKNGVGTSSSMGSGVSDDVFSSSRHESVSKISTISSVRNLTIRSSSFSDTLEESSPIAAIFDTENLEKISITEGIERGIVDSITGQRLLEAQACTGGIIHPTTGQKLSLQDAVSQGVIDQDMATRLKPAQKAFIGFEGVKGKKKMSAAEAVKEKWLPYEAGQRFLEFQYLTGGLVDPEVHGRISTEEAIRKGFIDGRAAQRLQDTSSYAKILTCPKTKLKISYKDAINRSMVEDITGLRLLEAASVSSKGLPSPYNMSSAPGSRSGSRSGSRSGSRSGSRSGSRRGGFDATGNSSYSYSYSFSSSSIGH
notes: construct previously described [8]; KD curves use the active concentration; source: HEK 293T, transfected (calcium phosphate), soluble fraction of cell lysate; not shown: EGFP, N-terminal, kept

binding result [2]: binds
B2: K14 (cytokeratin 14), purified (natural protein, UniProt P02533 1-472, looked up)
chain: T2 sequence (looked up) 2
notes: cytokeratin 14 (K14), plasmid pET23-K14; source: E. coli Rosetta, inclusion bodies, purified (anion exchange, gel filtration in 6 M urea)
